Source: paper PMC10506224, “Isolation and characterization of glutathione S-transferase genes and their transcripts in Saccharina japonica (Laminariales, Phaeophyceae) during development and under abiotic stress” (BMC Plant Biology, 2023)

B1: SjGST22 (Saccharina japonica) (protein)
chain: MAPKLVLTYFDIAGAAEAVRWALEQSGLEWEDKRLTRDEFGALKPSLPNGQVPILEVDGFVLAQSQAILRYVGKLGGLYPSDDLEAAKCDSVLDCATDFGINIRPSFMEKDQAKKMEMREDLAANFIPKWLASMEKQLASTGGIYFGEKMTVADIMIALRVKGLKGGVLDGVPTTIADSYPNLIALHDSIVGEPKIAAFIAKHAK
B2: SjGST20 (Saccharina japonica) (protein)
chain: MVPVFNYFGVPARGEATRVALAVAGVEFVDKIIPYAELHASGFRAVPVYQLDGTNYTQSTALLRYAGKLGGTYPEDPLEALKVDEIVMMVEDVFINIFADMKEKDEAKKLATHQALIAGKVKYLIEDIASKLEANTASPFCVGPSLTIADIMVHAMIATFQAGFLVGVPTTTAEDICPSLKGLDDAVMEHPKVKAYYASKA

Substrate: O=[N+]([O-])c1ccc(Cl)c([N+](=O)[O-])c1
Test: purified protein
Assay type: biochemical, Saccharina japonica
Settings: GSH co-substrate (30 μL of 60 mM in 900 μL)
[1] = 0.1 M potassium phosphate pH 8.0, 20 °C
[2] = 0.1 M potassium phosphate pH 7.0, 20 °C

| Protein | Km [1] | kcat [1] | kcat/Km [1] | Km [2] | kcat [2] | kcat/Km [2] |
| --- | --- | --- | --- | --- | --- | --- |
| B1 | 674 µM | 0.478 s⁻¹ | 709 M⁻¹ s⁻¹ |  |  |  |
| B2 |  |  |  | 2706 µM | 9.83 s⁻¹ | 3630 M⁻¹ s⁻¹ |
